Bounds are passed on as bounds.

The results in this text go back to US20210102192A1 (TWIST BIOSCIENCE, published 2021).

Assay [1] has as its target T1, Prostaglandin D2 receptor 2 (CRTH2R) (UniProt Q9Y5Y4 1-395).
T1 chain: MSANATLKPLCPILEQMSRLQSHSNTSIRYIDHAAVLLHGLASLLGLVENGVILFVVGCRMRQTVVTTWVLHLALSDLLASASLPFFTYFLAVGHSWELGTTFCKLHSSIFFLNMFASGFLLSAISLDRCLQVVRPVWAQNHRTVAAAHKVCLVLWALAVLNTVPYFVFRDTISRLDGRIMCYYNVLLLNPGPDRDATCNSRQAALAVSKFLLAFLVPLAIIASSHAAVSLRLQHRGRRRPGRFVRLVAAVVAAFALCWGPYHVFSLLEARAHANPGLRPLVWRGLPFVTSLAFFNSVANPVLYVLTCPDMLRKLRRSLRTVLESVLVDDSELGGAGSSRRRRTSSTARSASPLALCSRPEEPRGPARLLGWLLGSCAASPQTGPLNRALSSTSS
The assay is described as follows: FACS binding; CHO CRTH2R-positive cells.

Assay [2] concerns the target T2, Prostaglandin D2 receptor 2 (CRTH2R) (human, UniProt Q9Y5Y4 1-395).
T2 sequence: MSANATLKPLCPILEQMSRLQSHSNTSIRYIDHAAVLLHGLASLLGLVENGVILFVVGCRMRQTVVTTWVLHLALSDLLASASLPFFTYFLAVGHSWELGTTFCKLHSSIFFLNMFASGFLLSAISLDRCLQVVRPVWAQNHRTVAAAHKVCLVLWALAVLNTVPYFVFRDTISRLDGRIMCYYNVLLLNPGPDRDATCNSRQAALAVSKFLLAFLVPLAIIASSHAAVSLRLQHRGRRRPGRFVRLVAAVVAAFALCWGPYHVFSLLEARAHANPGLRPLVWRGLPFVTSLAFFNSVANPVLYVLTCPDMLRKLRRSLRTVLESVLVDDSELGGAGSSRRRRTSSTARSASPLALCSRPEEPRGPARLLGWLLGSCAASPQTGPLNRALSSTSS
The assay is described as follows: cell-based or functional assay.

The target in assay [3] is T1, Prostaglandin D2 receptor 2 (CRTH2R). The assay is described as follows: FACS binding; CRTH2R-positive cells. (In general: In flow cytometry, cells or beads pass a laser one at a time.)

B1: CRTH2-50 (antibody, V domains shown)
VH: QVQLVQSGAEVKKPGSSVKVSCKASGGTFSSYALSWVRKAPGQGLEWMGGTIPIFGTVNYAQKFQGRVTITADESTSTAYMELSSLRSEDTAVYYCARANQHFTRVIGQPSPAVPSRGYIYHGYHYYGMDVWGQGTLVTVSS
VL: QSALTQPASVSGSPGQSITISCTGTSSDIGGYNFVSWYQQHPGKAPKLMIYDVSNRPQGVSNRFSGSKSGNTASLTISGLQAEDEADYYCSSYTSSNTYVVFGGGTKLTVL
For the molecule B1, in assay [1], the EC50 worked out at 19.6 nM. The “IC50 fold difference of the PGD2 dose response curve (cAMP assay, 100 nM IgG)” value in assay [2] was over 2 fold.

B2: CRTH2-41-51 (Fc fusion)
chain: EVQLVESGGGLVQPGGSLRLSCAASGGIFRFNAMGWFRQAPGKERELVAGISGSGGDTYYADSVKGRFTISADNSKNTAYLQMNSLKPEDTAVYYCAAFRGIMRPDWGQGTLVTVSS
Molecule B2 gave an EC50 in assay [3] of 0.181 nM.

What is called EC50 is the concentration giving half of the maximal effect. Low values mean higher potency in that assay, high ones lower potency in that assay.
